Results from patent US20050255559A1 (published 2005).

B1: human calcium sensitive potassium channel β3c subunit (other)
chain: MFPLLYELTAVSPSPFPQRTAFPASGKKRETDYSDGDPLDVHKRLPSSTGEDRAVMLGFAMMGFSVLMFFLLGTTILKPFMLSIQREESTCTAIHTDIMDDWLDCAFTCGVHCHGQGKYPCLQVFVNLSHPGQKALLHYNEEAVQINPKCFYTPKCHQDRSDLLNSALDIKEFFDHKNGTPFSCFYSPASQSEDVILIKKYDQMAIFHCLFWPSLTLLGGALIVGMVRLTQHLSLLCEKYSTVVRDEVGGKVPYIEQHQFKLCIMRRSKGRAEKS
B2: human calcium sensitive potassium channel β3a subunit (other)
chain: MQPFSIPVQITLQGSRRRQGRTAFPASGKKRETDYSDGDPLDVHKRLPSSTGEDRAVMLGFAMMGFSVLMFFLLGTTILKPFMLSIQREESTCTAIHTDIMDDWLDCAFTCGVHCHGQGKYPCLQVFVNLSHPGQKALLHYNEEAVQINPKCFYTPKCHQDRSDLLNSALDIKEFFDHKNGTPFSCFYSPASQSEDVILIKKYDQMAIFHCLFWPSLTLLGGALIVGMVRLTQHLSLLCEKYSTVVRDEVGGKVPYIEQHQFKLCIMRRSKGRAEKS
B3: human calcium sensitive potassium channel β2 subunit (other)
chain: MFIWTSGRTSSSYRHDEKRNIYQKIRDHDLLDKRKTVTALKAGEDRAILLGLAMMVCSIMMYFLLGITLLRSYMQSVWTEESQCTLLNASITETFNCSFSCGPDCWKLSQYPCLQVYVNLTSSGEKLLLYHTEETIKINQKCSYIPKCGKNFEESMSLVNVVMENFRKYQHFSCYSDPEGNQKSVILTKLYSSNVLFHSLFWPTCMMAGGVAIVAMVKLTQYLSLLCERIQRINR

biological target: human calcium sensitive potassium channel α subunit (human Slowpoke α) (human, UniProt Q12791 1-1236); assay: cell-based or functional assay
Sequence (Q12791 whole entry): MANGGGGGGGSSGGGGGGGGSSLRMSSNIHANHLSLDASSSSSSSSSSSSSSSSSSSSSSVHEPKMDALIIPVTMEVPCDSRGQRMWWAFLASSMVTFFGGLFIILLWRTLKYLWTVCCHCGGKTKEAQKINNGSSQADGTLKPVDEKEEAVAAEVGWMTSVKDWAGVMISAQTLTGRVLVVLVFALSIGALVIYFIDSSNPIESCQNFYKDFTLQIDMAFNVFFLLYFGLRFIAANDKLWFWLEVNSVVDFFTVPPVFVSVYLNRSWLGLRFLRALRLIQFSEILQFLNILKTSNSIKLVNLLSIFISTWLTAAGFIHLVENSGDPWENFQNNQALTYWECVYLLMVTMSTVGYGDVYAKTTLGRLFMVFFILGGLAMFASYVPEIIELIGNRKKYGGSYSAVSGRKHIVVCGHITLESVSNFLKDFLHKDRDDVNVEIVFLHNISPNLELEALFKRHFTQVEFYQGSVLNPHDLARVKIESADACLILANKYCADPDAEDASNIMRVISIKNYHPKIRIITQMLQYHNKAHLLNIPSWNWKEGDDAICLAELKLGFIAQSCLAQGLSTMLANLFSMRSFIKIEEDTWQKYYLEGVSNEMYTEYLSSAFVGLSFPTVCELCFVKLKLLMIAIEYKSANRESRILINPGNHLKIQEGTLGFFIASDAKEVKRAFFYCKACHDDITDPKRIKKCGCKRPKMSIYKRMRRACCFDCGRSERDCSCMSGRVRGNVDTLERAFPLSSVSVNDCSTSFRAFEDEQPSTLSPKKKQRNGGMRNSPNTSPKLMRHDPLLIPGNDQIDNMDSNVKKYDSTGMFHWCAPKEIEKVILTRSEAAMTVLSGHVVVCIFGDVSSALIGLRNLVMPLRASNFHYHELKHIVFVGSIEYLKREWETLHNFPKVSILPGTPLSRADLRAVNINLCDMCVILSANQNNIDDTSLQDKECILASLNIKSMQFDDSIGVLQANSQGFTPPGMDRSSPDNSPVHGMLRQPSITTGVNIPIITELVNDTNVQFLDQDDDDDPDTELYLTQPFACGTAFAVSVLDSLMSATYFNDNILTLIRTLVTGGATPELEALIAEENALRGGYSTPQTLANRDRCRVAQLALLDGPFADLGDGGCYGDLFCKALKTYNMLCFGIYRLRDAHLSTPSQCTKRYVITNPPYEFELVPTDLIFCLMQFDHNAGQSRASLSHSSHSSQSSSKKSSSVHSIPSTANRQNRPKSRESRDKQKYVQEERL

Binder	V1/2 (half-maximal activation voltage, Boltzmann fit, inside-out patches, 30 µM Ca2+)
B1	20 mV
B2	45.4 mV
B3	-55 mV
